For this data set, the system named is Escherichia coli TOP10. Put plainly: shrunken log2 fold change of peptide-encoding DNA abundance (4.5 h post-induction vs induction); higher = less antimicrobial activity (less host growth inhibition). The conditions noted are these: time post-induction: 4.5 h; library: site-saturation at positions 5, 18, 19, 20.
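Further: peptides expressed intracellularly from a pBAD plasmid library in pooled LB shake-flask culture, induced with 0.3% L-arabinose, DNA abundance read by NGS, three biological replicates, DESeq2 with apeglm shrinkage.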

For the sequence RRIRNRPPRLPRPRPRPQDWPRP, the “shrunken log2 fold change” value was -0.133.

For RRIRFRPPRLPRPRPRPGKDPRP, the “shrunken log2 fold change” value was -0.105.

For the sequence RRIRMRPPRLPRPRPRPLGCPRP, the “shrunken log2 fold change” value was 0.182.

Consider RRIRVRPPRLPRPRPRPMLEPRP, for which the “shrunken log2 fold change” value came to 0.0706.

Regarding RRIRFRPPRLPRPRPRPDGEPRP, the “shrunken log2 fold change” value was 0.0232.

As for RRIRTRPPRLPRPRPRPTQKPRP, the “shrunken log2 fold change” value was -0.0787.

Regarding RRIRKRPPRLPRPRPRPHTNPRP, the “shrunken log2 fold change” value came to 0.192.

Regarding RRIRGRPPRLPRPRPRPMEVPRP, the “shrunken log2 fold change” value was -0.121.

In the case of RRIRPRPPRLPRPRPRPSSRPRP, the “shrunken log2 fold change” value was -0.863.

For RRIRWRPPRLPRPRPRPMNCPRP, the “shrunken log2 fold change” value is 0.0143.

RRIRFRPPRLPRPRPRPVAKPRP: the “shrunken log2 fold change” value is -0.0163.

With RRIRGRPPRLPRPRPRPVNGPRP, the “shrunken log2 fold change” value is -0.0658.

As to RRIRARPPRLPRPRPRPKYTPRP, the “shrunken log2 fold change” value was -0.013.

In the case of RRIRSRPPRLPRPRPRPYPAPRP, the “shrunken log2 fold change” value is -0.559.

With RRIRGRPPRLPRPRPRPAQMPRP, the “shrunken log2 fold change” value was determined as 0.305.

With RRIRFRPPRLPRPRPRPIFKPRP, the “shrunken log2 fold change” value is -0.153.

As for RRIRSRPPRLPRPRPRPYCGPRP, the “shrunken log2 fold change” value is -0.726.

For the sequence RRIRQRPPRLPRPRPRPDFNPRP, the “shrunken log2 fold change” value was -0.164.

RRIRCRPPRLPRPRPRPMHHPRP: the “shrunken log2 fold change” value was -0.796.

Turning to RRIRVRPPRLPRPRPRPANLPRP, the “shrunken log2 fold change” value was -0.163.

As to RRIRKRPPRLPRPRPRPFKWPRP, the “shrunken log2 fold change” value is 0.33.

In the case of RRIRERPPRLPRPRPRPDPYPRP, the “shrunken log2 fold change” value was -0.0291.

For the sequence RRIRKRPPRLPRPRPRPKIVPRP, the “shrunken log2 fold change” value came out at 0.0401.

For the sequence RRIRARPPRLPRPRPRPMVGPRP, the “shrunken log2 fold change” value was 0.548.

Take RRIRCRPPRLPRPRPRPGMEPRP: the “shrunken log2 fold change” value was 0.183.

In the case of RRIRDRPPRLPRPRPRPCYYPRP, the “shrunken log2 fold change” value is -0.0165.

For the sequence RRIRNRPPRLPRPRPRPGSIPRP, the “shrunken log2 fold change” value is -0.00285.

Regarding RRIRWRPPRLPRPRPRPPHFPRP, the “shrunken log2 fold change” value came to 0.701.

As to RRIRARPPRLPRPRPRPWCHPRP, the “shrunken log2 fold change” value was -0.0135.

With RRIRIRPPRLPRPRPRPMNHPRP, the “shrunken log2 fold change” value is -0.348.

Consider RRIRLRPPRLPRPRPRPLMVPRP, for which the “shrunken log2 fold change” value is -0.326.

As for RRIRKRPPRLPRPRPRPNSNPRP, the “shrunken log2 fold change” value was -0.115.

For the sequence RRIRVRPPRLPRPRPRPKFLPRP, the “shrunken log2 fold change” value is -0.00678.

For RRIRARPPRLPRPRPRPLTPPRP, the “shrunken log2 fold change” value is 0.548.

On to RRIRWRPPRLPRPRPRPQLKPRP, for which the “shrunken log2 fold change” value came out at 0.147.

With RRIRHRPPRLPRPRPRPAPSPRP, the “shrunken log2 fold change” value amounted to 0.709.

For RRIRDRPPRLPRPRPRPSMRPRP, the “shrunken log2 fold change” value came to 0.334.

On to RRIRRRPPRLPRPRPRPFSAPRP, for which the “shrunken log2 fold change” value was -0.274.

For the sequence RRIRHRPPRLPRPRPRPQVMPRP, the “shrunken log2 fold change” value is -0.0437.

On to RRIRFRPPRLPRPRPRPGAHPRP, for which the “shrunken log2 fold change” value is -0.126.

On to RRIRQRPPRLPRPRPRPWRNPRP, for which the “shrunken log2 fold change” value was -0.00208.

As to RRIRNRPPRLPRPRPRPSCCPRP, the “shrunken log2 fold change” value was -0.318.

With RRIRLRPPRLPRPRPRPYPTPRP, the “shrunken log2 fold change” value was -0.317.

For RRIRWRPPRLPRPRPRPPVPPRP, the “shrunken log2 fold change” value stood at 0.469.

Turning to RRIRYRPPRLPRPRPRPGVFPRP, the “shrunken log2 fold change” value is -0.0987.

As to RRIRTRPPRLPRPRPRPTFLPRP, the “shrunken log2 fold change” value is -0.0937.

With RRIRDRPPRLPRPRPRPDKEPRP, the “shrunken log2 fold change” value is -0.0124.

For RRIRLRPPRLPRPRPRPPKFPRP, the “shrunken log2 fold change” value is 0.028.

Regarding RRIRVRPPRLPRPRPRPYVTPRP, the “shrunken log2 fold change” value came to 0.0974.

On to RRIRGRPPRLPRPRPRPIKWPRP, for which the “shrunken log2 fold change” value is 0.434.

Turning to RRIRWRPPRLPRPRPRPTHLPRP, the “shrunken log2 fold change” value worked out at 0.0424.

As to RRIRWRPPRLPRPRPRPCSYPRP, the “shrunken log2 fold change” value was -0.0533.

On to RRIRFRPPRLPRPRPRPYCVPRP, for which the “shrunken log2 fold change” value is -1.23.

Turning to RRIRMRPPRLPRPRPRPQMHPRP, the “shrunken log2 fold change” value came to 0.947.

RRIRERPPRLPRPRPRPDTDPRP: the “shrunken log2 fold change” value turned out to be 0.0402.

For RRIRFRPPRLPRPRPRPMALPRP, the “shrunken log2 fold change” value is -0.706.

On to RRIRMRPPRLPRPRPRPSPMPRP, for which the “shrunken log2 fold change” value was found to be 0.369.

For RRIRCRPPRLPRPRPRPWVAPRP, the “shrunken log2 fold change” value is -0.0206.

With RRIRSRPPRLPRPRPRPSNNPRP, the “shrunken log2 fold change” value is -0.66.

For RRIRLRPPRLPRPRPRPMEEPRP, the “shrunken log2 fold change” value is 0.156.

Take RRIRERPPRLPRPRPRPINTPRP: the “shrunken log2 fold change” value was -0.351.

Consider RRIRERPPRLPRPRPRPTQIPRP, for which the “shrunken log2 fold change” value turned out to be 0.0737.

On to RRIRFRPPRLPRPRPRPVHLPRP, for which the “shrunken log2 fold change” value is -0.0117.

Turning to RRIRQRPPRLPRPRPRPMREPRP, the “shrunken log2 fold change” value was 0.0211.

As to RRIRRRPPRLPRPRPRPITHPRP, the “shrunken log2 fold change” value was -0.287.

RRIRDRPPRLPRPRPRPSSLPRP: the “shrunken log2 fold change” value was found to be 0.15.

On to RRIRYRPPRLPRPRPRPIMVPRP, for which the “shrunken log2 fold change” value is -0.152.

In the case of RRIRCRPPRLPRPRPRPKYKPRP, the “shrunken log2 fold change” value was -0.834.

Consider RRIRDRPPRLPRPRPRPGVQPRP, for which the “shrunken log2 fold change” value is -0.0372.

With RRIRPRPPRLPRPRPRPKVCPRP, the “shrunken log2 fold change” value was 0.0118.

For RRIRIRPPRLPRPRPRPMTQPRP, the “shrunken log2 fold change” value is 0.0472.

Turning to RRIRNRPPRLPRPRPRPDDVPRP, the “shrunken log2 fold change” value was -0.0233.

As to RRIRQRPPRLPRPRPRPPYTPRP, the “shrunken log2 fold change” value is -0.552.

Take RRIRCRPPRLPRPRPRPQFEPRP: the “shrunken log2 fold change” value worked out at 0.000801.

RRIRLRPPRLPRPRPRPVRRPRP: the “shrunken log2 fold change” value came out at 0.276.

As for RRIRDRPPRLPRPRPRPWTQPRP, the “shrunken log2 fold change” value was -0.124.

Consider RRIRPRPPRLPRPRPRPLMNPRP, for which the “shrunken log2 fold change” value was -0.47.

In the case of RRIRCRPPRLPRPRPRPSPFPRP, the “shrunken log2 fold change” value was -0.0566.

Turning to RRIRCRPPRLPRPRPRPWGNPRP, the “shrunken log2 fold change” value is -0.256.

As for RRIRQRPPRLPRPRPRPATIPRP, the “shrunken log2 fold change” value is -0.123.

As for RRIRERPPRLPRPRPRPHFAPRP, the “shrunken log2 fold change” value was -0.0634.

As to RRIRLRPPRLPRPRPRPKPLPRP, the “shrunken log2 fold change” value stood at 0.144.

As to RRIRIRPPRLPRPRPRPPYRPRP, the “shrunken log2 fold change” value is -0.468.

In the case of RRIRCRPPRLPRPRPRPMNLPRP, the “shrunken log2 fold change” value is -0.538.

Take RRIRRRPPRLPRPRPRPQMFPRP: the “shrunken log2 fold change” value is -0.25.

In the case of RRIRIRPPRLPRPRPRPKRAPRP, the “shrunken log2 fold change” value turned out to be 0.283.

Consider RRIRKRPPRLPRPRPRPLGMPRP, for which the “shrunken log2 fold change” value was found to be 0.11.

Consider RRIRPRPPRLPRPRPRPAEYPRP, for which the “shrunken log2 fold change” value was -0.565.

For RRIRVRPPRLPRPRPRPVCAPRP, the “shrunken log2 fold change” value came to 0.413.

On to RRIRMRPPRLPRPRPRPDCQPRP, for which the “shrunken log2 fold change” value was 1.37.

Turning to RRIRWRPPRLPRPRPRPNWCPRP, the “shrunken log2 fold change” value was -0.0188.

For the origin of these results see the supplement of paper PMC9112550, “Optimization of the antimicrobial peptide Bac7 by deep mutational scanning” (BMC Biology, 2022).
